In paper PMC9521928:

Molecular target: CPXV14-His (His-tagged recombinant cowpox virus Brighton Red CPXV14) (cowpox virus (Brighton Red strain))
Assay: BLI; […] (10 μg/mL, 2 min), […]; PBS pH 7.4, 0.005% Tween-20; 25°C; steady-state fit, 1:1 binding model; […]

Question: With “soluble recombinant murine FcγRIIB (mCD32B) ectodomain (from UniProt P08101 30-210) (receptor)” as the substance, how does the Kd read?
Answer: 3.6 nM
